# In patent US11859229B2, “Polyvinyl alcohol-degrading enzyme and process for producing the same” (Hayashibara Co., Ltd., priority 2017, dated 2024):
# What was measured:
# Type in all cases: biochemical
# [1] = Detection of β-diketone hydrolyzing activity (acetone from 2,4-pentanedione by gas chromatography); parameters: key: Yes: Acetone, a product by the hydrolysis, was qualitatively detected; settings: qualitative
# Text: As shown in the above (2), the PVA-degrading enzyme of the present invention has an activity of hydrolyzing […]-diketone, i.e., […]-diketone-hydrolyzing activity. Enzymes having β-diketone-hydrolyzing activity can hydrolyze an oxidized PVA having a […]-diketone structure (i.e., oxidized PVA). Beta-diketone-hydrolyzing activity can be detected by examining the activity of hydrolyzing 2, 4-pentanedione which is a model compound of oxidized PVA having a […]-diketone structure. Acetone and acetic acid are formed when a PVA-degrading enzyme hydrolyzes 2,4-pentanedione. Therefore, for example, […]-diketone-hydrolyzing activity can be detected by the following method using 2,4-pentanedione as a substrate.
# 2,4-Pentanedione (Reagent grade, commercialized by Wako Pure Chemical Industries Co., Ltd., Osaka, Japan) was added to 50 mM sodium phosphate buffer (pH 7.0) to give a concentration of 0.2% (w/v) to make into a substrate solution. To 1 mL of the substrate solution, 0.2 mL of enzyme solution and 0.8 mL of 50 mM sodium phosphate buffer (pH 7.0) were added and then the mixture was shaken at 27° C. for 3 hours for the reaction. After the reaction, 2 mL of the reaction mixture was withdrawn and put in a glass vial, and then the vial was sealed and heated at 95° C. for 40 min. […]
# [2] = Thermal stability and pH stability (residual PVA-oxidizing activity)
# Method: To 0.5 mL of a substrate solution prepared by dissolving PVA (Reagent grade polyvinyl alcohol, polymerization degree: 2,000, Nacalai Tesque Inc., Kyoto, Japan) into 100 mM sodium phosphate buffer (pH 7.0) to give a concentration of 2% (w/v), 15 µL of 2% (w/v) of sodium azide solution was added, and then 0.5 mL of an enzyme solution is further added and reacted with shaking at 27° C. for 60 min. After the 60 min-reaction, the reaction was stopped by mixing 0.32 mL of the reaction mixture to 0.8 mL of a titanium reagent, and the yellow color, produced by reacting hydrogen peroxide formed by the enzyme reaction and the titanium reagent, was measured by measuring the absorbance at 410 nm (A410) as an index. Separately, the enzyme solution was added to the substrate solution, and the resulting mixture is immediately mixed with the titanium reagent. The resulting mixture was similarly measured its color and the value was used as the value at the reaction zero minutes. Then, the amount of the formed hydrogen peroxide is determined and the PVA-oxidizing activity is calculated based on the following formula. It is known that the absorbance at 410 nm (A410) increases by “1” when 3.65 […]mole/mL of hydrogen peroxide is formed. […]
# In the two purified preparations of the PVA-degrading enzyme, PVA-A was used for investigating thermal stability and pH stability using PVA-oxidizing activity as an index according to the assay method. Thermal stability was determined by the steps of incubating the enzyme solution (in 10 mM phosphate buffer, pH 7.0) at various temperature for 60 min, cooling in water, and then measuring the residual enzyme activity. pH Stability was determined by the steps of incubating the enzyme solution in 100 mM buffer with different pH at 4° C. for 24 hours, adjusting pH to 7.0, and then measuring the residual enzyme activity. […] In FIG. 6, symbols, “●”, “▪”, “▴” and “♦”, mean values measured by using acetate buffer, phosphate buffer, glycine-NaOH buffer, and potassium chloride-NaOH buffer, respectively, for pH control.
# [3] = Assay for PVA-oxidizing activity (hydrogen peroxide formation, titanium reagent, A410)
# Method: As shown in the above (1), the PVA-degrading enzyme of the present invention has an PVA-oxidizing activity, i.e., an activity of catalyzing the reaction of oxidizing PVA as substrate and forming hydrogen peroxide. For example, the PVA-oxidizing activity can be measured by the following method.
# To 0.5 mL of a substrate solution prepared by dissolving PVA (Reagent grade polyvinyl alcohol, polymerization degree: 2,000, Nacalai Tesque Inc., Kyoto, Japan) into 100 mM sodium phosphate buffer (pH 7.0) to give a concentration of 2% (w/v), 15 µL of 2% (w/v) of sodium azide solution was added, and then 0.5 mL of an enzyme solution is further added and reacted with shaking at 27° C. for 60 min. After the 60 min-reaction, the reaction was stopped by mixing 0.32 mL of the reaction mixture to 0.8 mL of a titanium reagent, and the yellow color, produced by reacting hydrogen peroxide formed by the enzyme reaction and the titanium reagent, was measured by measuring the absorbance at 410 nm (A410) as an index. Separately, the enzyme solution was added to the substrate solution, and the resulting mixture is immediately mixed with the titanium reagent. The resulting mixture was similarly measured its color and the value was used as the value at the reaction zero minutes. Then, the amount of the formed hydrogen peroxide is determined and the PVA-oxidizing activity is calculated based on the following formula. It is known that the absorbance at 410 nm (A410) increases by “1” when 3.65 […]mole/mL of hydrogen peroxide is formed. Therefore, in the following Formula 1, the coefficient of “3.65” has been multiplied. One unit of the PVA-oxidizing activity is defined as the amount of enzyme that forms 1 […]mole of hydrogen peroxide per min under the above conditions. Titanium reagent is prepared by diluting 5% titanium sulfate (IV) solution, commercialized by Nacalai Tesque Inc., Kyoto, Japan, 25-fold with 10% (w/w) sulfuric acid.
# [4] = PVA-degrading (viscosity-reducing) activity; settings: at each purification step
# Method: While, activity as a PVA-degrading enzyme can be measured, for example, by measuring the viscosity reduction of a PVA solution, caused by the degradation of PVA, as an index using the following method.
# To 0.5 mL of a substrate solution prepared by dissolving PVA (Reagent grade polyvinyl alcohol, polymerization degree: 2,000, Nacalai Tesque Inc., Kyoto, Japan) into 100 mM sodium phosphate buffer (pH 7.0) to give a concentration of 2% (w/v), 15 µL of 2% (w/v) of sodium azide solution was added, and then 0.5 mL of an enzyme solution is further added and reacted with shaking at 27° C. for 60 min. After the reaction, 0.6 mL of the reaction mixture was withdrawn and its viscosity was measured using a Cone plate-type viscometer (“DV-II+Pro”, Brookfield Co., Ltd.) at 30° C. Separately, the enzyme solution was added to the substrate solution and the viscosity was measured immediately, and the viscosity was used as that at zero-min reaction. The PVA-degrading activity was calculated based on the following formula. One unit of the PVA-degrading activity was defined as the amount of enzyme that causes a 10%-reduction of relative viscosity per min under the above conditions. […]
# [5] = Optimum temperature and optimum pH of PVA-oxidizing activity
# Method: To 0.5 mL of a substrate solution prepared by dissolving PVA (Reagent grade polyvinyl alcohol, polymerization degree: 2,000, Nacalai Tesque Inc., Kyoto, Japan) into 100 mM sodium phosphate buffer (pH 7.0) to give a concentration of 2% (w/v), 15 µL of 2% (w/v) of sodium azide solution was added, and then 0.5 mL of an enzyme solution is further added and reacted with shaking at 27° C. for 60 min. After the 60 min-reaction, the reaction was stopped by mixing 0.32 mL of the reaction mixture to 0.8 mL of a titanium reagent, and the yellow color, produced by reacting hydrogen peroxide formed by the enzyme reaction and the titanium reagent, was measured by measuring the absorbance at 410 nm (A410) as an index. Separately, the enzyme solution was added to the substrate solution, and the resulting mixture is immediately mixed with the titanium reagent. The resulting mixture was similarly measured its color and the value was used as the value at the reaction zero minutes. Then, the amount of the formed hydrogen peroxide is determined and the PVA-oxidizing activity is calculated based on the following formula. It is known that the absorbance at 410 nm (A410) increases by “1” when 3.65 […]mole/mL of hydrogen peroxide is formed. Therefore, in the following Formula 1, the coefficient of “3.65” has been multiplied. […]
molecule,measurement,setting,value
"PVA-B: purified PVA-degrading hybrid enzyme from Pseudomonas sp. VT1B strain, amino acid sequence of SEQ ID NO: 3 (protein, listed as Pseudomonas sp.) AENWPMFGKNYENSRATADTQLSTSNISSLNVVRRTADGGITGTPTVVDGVAYYSDFSGYVKAVRVNDGAVLWRVRPQTTMLSPSPFVTDDTVYVAGNNSYVYALNRLDGAVRWTTQIETSPNSRISSSPIVVDNILMIGTGSYQVFIPATPMFRGRVVFLNATTGAILPYSTNMCPEGLCGGGISVWSTAAVDVSTRTGYIGTGQAYRDPAGPYSDSLVAFDIDTGAIRWSQQFLANDVYQLGGVLRYDYDVGAAPNLFVADERRMVGVGGKDGTYRAFDRDTGAPIWTTPVGRGSPIGGVMQSTAYGDGRIYVTSNTSTIGGGRNDPVPATAEALALDAATGTPVWIRQLDAGGFGGVAYANGLMYASVWDGRMRVFNAANGNIVKEVQVSPSRGVYVAAPTDGFPNGSAGGPIVYGNRVLMGYGWTWVLNISGGLATMELVSGGGETQTVTLASNQDTYVQSGTPTTSYNANEFLLARLADAEGLTRASFLQFPLTAIPAGTITSARLRLYGRHDAPTGTGQPVSVWPGTFTTPWNGADVIYNNSDLVTGVNFYLTSPIANALIGITPQYYEWDVTGYVDSRRALGHATFGVAVDYGHLYRVTFNSADNAANRPELVVAVSTGGTSEPDPELPPGSMEGSCPAGFTPRAGVNQGFIHNGVARGFVLNVPANVSTPRPMFVSLTGSVESTNENLGPRGGAGALTNDGFLVIGPVRRCAGQDPNGSGTSVGGGTCNQPGTGGWNWNPWNEGRAFGAAGDQWKTAEGPDSEFLESVARCVAKRFPVDSKRMYLGGISSGGTLTNRALLFNSDFWAGGLPISGEWYVTRDDGTAYPGPDEFAARRQAVIDDPTKIFQGRVGPLPLRSTLDPMIVITVWGGTNDVWSCDGVTLCADYRPSTQVASNYFSAQPNVVHVACSSSHGHQWPTINRAAFNTWAATTLASHPKGTPASAFVLPPPPAGYTCRIGPYIDHYERACSVDGDGDIDRNDIAVITAARNQPASGPTDLRDVDRSGVIDVNDARACTLRCDRPNCAVQ","2,4-Pentanedione-Degrading Activity",[1],Yes*
same,Thermal stability of PVA-oxidizing activity,"[2]; 10 mM phosphate buffer, pH 7.0, 60 min",almost the same
same,pH stability of PVA-oxidizing activity,"[2]; 100 mM buffer, 4° C. for 24 hours",almost the same
same,Specific activity,[3]; PVA-oxidizing activity per mg protein at each purification step,1.9 U/mg
same,Total Activity (PVA-oxidizing activity),"[3]; at each purification step, from 4 L culture supernatant",3.3 U
same,Total PVA-Degrading Activity (Viscosity-reducing Activity),[4],8.4 U
same,Optimum pH of PVA-oxidizing activity,[5]; 60 min-reaction at 27° C.,almost the same
same,Optimum temperature of PVA-oxidizing activity,[5]; 60 min-reaction at pH 7.0,almost the same
